This note sets out measurements from PMC2233751 (The Journal of General Physiology, 2001).

The target of the assay is actin filaments (UniProt P68135 1-377). Briefly: co-sedimentation.

B1: myosin V 1IQ monomer (domain or fragment)
chain: MAASELYTKYARVWIPDPEEVWKSAELLKDYKPGDKVLQLRLEEGKDLEYCLDPKTKELPPLRNPDILVGENDLTALSYLHEPAVLHNLKVRFIDSKLIYTYCGIVLVAINPYEQLPIYGEDIINAYSGQNMGDMDPHIFAVAEEAYKQMARDERNQSIIVSGESGAGKTVSAKYAMRYFATVSGSASEANVEEKVLASNPIMESIGNAKTTRNDNSSRFGKYIEIGFDKRYRIIGANMRTYLLEKSRVVFQAEEERNYHIFYQLCASAALPEFKTLRLGNANYFHYTKQGGSPVIDGIDDAKEMVNTRQACTLLGISDSYQMGIFRILAGILHLGNVEFASRDSDSCAIPPKHDPLTIFCDLMGVDYEEMAHWLCHRKLATATETYIKPISKLHAINARDALAKHIYANLFNWIVDHVNKALHSTVKQHSFIGVLDIYGFETFEINSFEQFCINYANEKLQQQFNMHVFKLEQEEYMKEQIPWTLIDFYDNQPCINLIEAKMGVLDLLDEECKMPKGSDDTWAQKLYNTHLNKCALFEKPRLSNKAFIIKHFADKVEYQCEGFLEKNKDTVYEEQIKVLKSSKKFKLLPELFQDEEKAISPTSATPSGRVPLSRTPVKPAKARPGQTSKEHKKTVGHQFRNSLHLLMETLNATTPHYVRCIKPNDFKFPFTFDEKRAVQQLRACGVLETIRISAAGFPSRWTYQEFFSRYRVLMKQKDVLSDRKQTCKNVLEKLILDKDKYQFGKTKIFFRAGQVAYLEKIRADKLRAACIRIQKTIRGWLMRKKYMRMRR
What is called Kd is a measure of binding affinity in units of concentration. A high value points to lower affinity. For the molecule B1, binding was put at a Kd of 10 µM.
